Like-named read-outs stand apart in the source and are kept apart here. Each block holds one molecule with its values, some of them ahead of it. Numbered stars: 1 amine (or outer) side, 2 acyl side, 3 side chain; on linkers, the order of the positions; unused ones are H or OH. Square brackets hold non-standard residues; d marks the D form. Peptide text beside a SMILES is read from it. * marks the point of attachment. DOTA(Lu)NH(CH2)6NHCOCH2 = O=C(CN1CCN2CCN3CCN(CC1)CC(=O)[O][Lu]([O]C(=O)C2)[O]C(=O)C3)NCCCCCCNC(=O)C*; X10 = O=C(CN1CCN2CCN3CCN(CC1)CC(=O)[O][Lu]([O]C(=O)C2)[O]C(=O)C3)NCC12CCC(C(=O)*)(CC1)CC2; DOTA(Lu) = O=C1CN2CCN3CCN(CC(=O)*)CCN(CC2)CC(=O)[O][Lu]([O]1)[O]C(=O)C3; Ala(piperidin-4-yl) = O=C([C@H](CC1CCN([*:3])CC1)N[*:1])[*:2]; dTrp(βS-Me) = C[C@@H](c1c[nH]c2ccccc12)[C@@H](N)C(=O)O; Ala(piperazin-1-yl) = N[C@@H](CN1CCNCC1)C(=O)O; X2 = O=C([C@H](CCC1CNC1)N[*:1])[*:2]; Lys(Me2) = CN(C)CCCC[C@H](N)C(=O)O; NMeLys(Me) = CNCCCC[C@H](NC)C(=O)O; Lys(Me) = CNCCCC[C@H](N)C(=O)O; NMehCys = CN[C@@H](CCS)C(=O)O; NMeK = CN[C@@H](CCCCN)C(=O)O; X1 = C1NCC1*
Legend:
[1] = Peptide conjugate biodistribution measured by tissue PK (ICP-MS, % ID/g in kidney tissue at 2 h); type: in vivo; conditions: 2 h time point, mouse
Description: Macrocyclic peptides and conjugates described herein were tested for tissue distribution by measuring concentrations in tissues by MS using in vivo animal models. Peptide metal chelates were dosed to animals and tissues were collected at specific time points based off the peptide PK profile. The samples were then analyzed by MS and the results reported as % ID/g (% injected dose/gram). Radiopharmaceutical conjugates of the present disclosure have improved tissue distribution for radiopharmaceutical therapeutics.
Peptide metal chelate doses were suspended in phosphate-buffered saline (PBS) containing 0.1% Tween 80. An injection volume of 100 μL per mouse was used, and blood and tissue samples were collected, weighed, and stored frozen at-80° C. until analysis. Tissue samples were digested with concentrated nitric acid in a microwave digestion apparatus. The sample digest was diluted with internal standard and analyzed using inductively coupled plasma mass spectrometry (ICP-MS). ICP-MS is an elemental analysis technique used to measure elements by using argon plasma to convert the sample into ions that are then measured using the mass spectrometer. Calibration standards were used for quantification of element(s) of interest by constructing a multipoint standard curve covering the range of analyte concentrations anticipated in the samples (typical range is 500 ppt to 0.1 ppt). A single quadrupole instrument (iCAP RQ, Thermo Fisher) ICP-MS was coupled with a Teledyne CETAC autosampler and used for the sample analysis.
The % ID/g of conjugate in kidney tissue at the 2-hour time point (2 h) was quantified for various conjugates, and the results are shown in Table 10. Lower kidney tissue % ID/g values indicate lower distribution to the kidney after administration of the conjugate.

SSTR2 = SSTR2 (Homo sapiens, UniProt P30874); assay: SSTR binding affinity by radioligand binding competition assay ([125I]-Tyr11-Somatostatin, membrane extracts); conditions: radioligand competition, [125I]-Tyr11-Somatostatin 0.1 nM, membrane extracts, Ki from IC50 by Cheng Prusoff
[2] = target: T1, somatostatin receptor type 2 (SSTR2) (UniProt P30874 1-369, limits assumed); assay: radioligand competition; Ki bin per legend
T1 construct: also called SSTR protein
T1 sequence (P30874 whole entry): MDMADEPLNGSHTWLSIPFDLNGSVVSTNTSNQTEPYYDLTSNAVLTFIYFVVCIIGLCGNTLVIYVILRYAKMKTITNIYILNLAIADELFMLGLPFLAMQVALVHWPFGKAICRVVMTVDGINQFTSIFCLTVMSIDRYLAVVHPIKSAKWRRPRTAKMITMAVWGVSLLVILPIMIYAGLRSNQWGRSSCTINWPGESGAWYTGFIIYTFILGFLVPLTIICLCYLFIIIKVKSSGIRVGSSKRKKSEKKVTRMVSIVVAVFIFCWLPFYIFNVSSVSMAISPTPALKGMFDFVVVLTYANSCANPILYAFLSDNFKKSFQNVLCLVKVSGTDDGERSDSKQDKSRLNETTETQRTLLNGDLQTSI

SSTR2, sequence (P30874 whole entry): as above

Molecule: C[C@@H](O)[C@@H]1NC(=O)[C@H](CCCCN)NC(=O)[C@@H](Cc2c[nH]c3ccccc23)NC(=O)[C@H](Cc2ccc(O)cc2)NC(=O)[C@H](CCSCC(=O)NCCCCCCNC(=O)CN2CCN3CCN4CCN(CC2)CC(=O)[O][Lu]([O]C(=O)C3)[O]C(=O)C4)N(C)C(=O)[C@H](Cc2ccccc2)NC1=O [RB-0003149]
tissue uptake at 2 h [1]: 8.4 %ID/g
Ki (SSTR2; SSTR2 Ki): < 1 nM

Molecule: C[C@@H](O)[C@@H]1NC(=O)[C@H](CCCCN)NC(=O)[C@H](Cc2c[nH]c3ccccc23)NC(=O)[C@H](Cc2ccc(O)cc2)NC(=O)[C@H](CCSCC(=O)NCCOCCOCCOCCNC(=O)CN2CCN3CCN4CCN(CC2)CC(=O)[O][Lu]([O]C(=O)C3)[O]C(=O)C4)N(C)C(=O)[C@H](Cc2ccccc2)NC1=O [RB-0005502]
tissue uptake at 2 h [1]: 9.4 %ID/g
Ki (SSTR2; read-out: SSTR2 Ki): < 1 nM

Molecule: C[C@@H](O)[C@@H]1NC(=O)[C@H](CC2CCNCC2)NC(=O)[C@@H]([C@@H](C)c2c[nH]c3ccccc23)NC(=O)[C@H](Cc2ccc(O)cc2)NC(=O)[C@H](CCSCC(=O)NCCCCCCNC(=O)CN2CCN3CCN4CCN(CC2)CC(=O)[O][Lu]([O]C(=O)C3)[O]C(=O)C4)N(C)C(=O)[C@H](Cc2ccccc2)NC1=O [RB-0005760] (cyclo(F[NMehCys](DOTA(Lu)NH(CH2)6NHCOCH2)Y[dTrp(βS-Me)][Ala(piperidin-4-yl)]T))
tissue uptake at 2 h [1]: 2.7 %ID/g
Ki (SSTR2; read-out: SSTR2 Ki): < 1 nM

Molecule: CNCCCC[C@@H]1NC(=O)[C@@H](Cc2c[nH]c3ccccc23)NC(=O)[C@H](Cc2ccc(O)cc2)NC(=O)[C@H](CCSCC(=O)NCCCCCCNC(=O)CN2CCN3CCN4CCN(CC2)CC(=O)[O][Lu]([O]C(=O)C3)[O]C(=O)C4)N(C)C(=O)[C@H](Cc2ccccc2)NC(=O)[C@H]([C@@H](C)O)NC1=O [RB-0005799] (cyclo(F[NMehCys](DOTA(Lu)NH(CH2)6NHCOCH2)Y[dW][Lys(Me)]T))
tissue uptake at 2 h [1]: 2.3 %ID/g
Ki (SSTR2; read-out: SSTR2 Ki): < 1 nM

Molecule: C[C@@H](O)[C@@H]1NC(=O)[C@H](CCCCN(C)C)NC(=O)[C@@H](Cc2c[nH]c3ccccc23)NC(=O)[C@H](Cc2ccc(O)cc2)NC(=O)[C@H](CCSCC(=O)NCCCCCCNC(=O)CN2CCN3CCN4CCN(CC2)CC(=O)[O][Lu]([O]C(=O)C3)[O]C(=O)C4)N(C)C(=O)[C@H](Cc2ccccc2)NC1=O [RB-0005801] (cyclo(F[NMehCys](DOTA(Lu)NH(CH2)6NHCOCH2)Y[dW][Lys(Me2)]T))
tissue uptake at 2 h [1]: 2 %ID/g
Ki (SSTR2; read-out: SSTR2 Ki): 1 to 3.33 nM

Molecule: C[C@@H](O)[C@@H]1NC(=O)[C@H](CN2CCNCC2)NC(=O)[C@@H](Cc2c[nH]c3ccccc23)NC(=O)[C@H](Cc2ccc(O)cc2)NC(=O)[C@H](CCSCC(=O)NCCCCCCNC(=O)CN2CCN3CCN4CCN(CC2)CC(=O)[O][Lu]([O]C(=O)C3)[O]C(=O)C4)N(C)C(=O)[C@H](Cc2ccccc2)NC1=O [RB-0005805] (cyclo(F[NMehCys](DOTA(Lu)NH(CH2)6NHCOCH2)Y[dW][Ala(piperazin-1-yl)]T))
tissue uptake at 2 h [1]: 2.5 %ID/g
Ki (SSTR2; SSTR2 Ki): < 1 nM

Molecule: C[C@@H](O)[C@@H]1NC(=O)[C@H](CCC2CNC2)NC(=O)[C@@H](Cc2c[nH]c3ccccc23)NC(=O)[C@H](Cc2ccc(O)cc2)NC(=O)[C@H](CCSCC(=O)NCCCCCCNC(=O)CN2CCN3CCN4CCN(CC2)CC(=O)[O][Lu]([O]C(=O)C3)[O]C(=O)C4)N(C)C(=O)[C@H](Cc2ccccc2)NC1=O [RB-0005897] (cyclo(F[NMehCys](DOTA(Lu)NH(CH2)6NHCOCH2)Y[dW][X2]T))
tissue uptake at 2 h [1]: 2.5 %ID/g
Ki (SSTR2; read-out: SSTR2 Ki): < 1 nM

Molecule: C[C@@H](O)[C@@H]1NC(=O)[C@H](COC2CNC2)NC(=O)[C@@H](Cc2c[nH]c3ccccc23)NC(=O)[C@H](Cc2ccc(O)cc2)NC(=O)[C@H](CCSCC(=O)NCCCCCCNC(=O)CN2CCN3CCN4CCN(CC2)CC(=O)[O][Lu]([O]C(=O)C3)[O]C(=O)C4)N(C)C(=O)[C@H](Cc2ccccc2)NC1=O [RB-0006013] (cyclo(F[NMehCys](DOTA(Lu)NH(CH2)6NHCOCH2)Y[dW]S(X1)T))
tissue uptake at 2 h [1]: 3 %ID/g
Ki (SSTR2; read-out: SSTR2 Ki): 1 to 3.33 nM

Molecule: C[C@@H](O)[C@@H]1NC(=O)[C@H](CN2CCNCC2)NC(=O)[C@@H]([C@@H](C)c2c[nH]c3ccccc23)NC(=O)[C@H](Cc2ccc(O)cc2)NC(=O)[C@H](CCSCC(=O)NCCCCCCNC(=O)CN2CCN3CCN4CCN(CC2)CC(=O)[O][Lu]([O]C(=O)C3)[O]C(=O)C4)N(C)C(=O)[C@H](Cc2ccccc2)NC1=O [RB-0006072] (cyclo(F[NMehCys](DOTA(Lu)NH(CH2)6NHCOCH2)Y[dTrp(βS-Me)][Ala(piperazin-1-yl)]T))
tissue uptake at 2 h [1]: 2.7 %ID/g
Ki (SSTR2; read-out: SSTR2 Ki): < 1 nM

Molecule: C[C@@H](O)[C@@H]1NC(=O)[C@H](CC2CCNCC2)NC(=O)[C@@H]([C@@H](C)c2c[nH]c3ccccc23)NC(=O)[C@H](Cc2ccc(O)cc2)NC(=O)[C@H](CCCCNC(=O)CN2CCN3CCN4CCN(CC2)CC(=O)[O][Lu]([O]C(=O)C3)[O]C(=O)C4)N(C)C(=O)[C@H](Cc2ccccc2)NC1=O [RB-0006176] (cyclo(F[NMeK](DOTA(Lu))Y[dTrp(βS-Me)][Ala(piperidin-4-yl)]T))
tissue uptake at 2 h [1]: 1.6 %ID/g

Molecule: C[C@@H](O)[C@@H]1NC(=O)[C@H](CC2CCNCC2)NC(=O)[C@@H]([C@@H](C)c2c[nH]c3ccccc23)NC(=O)[C@H](Cc2ccc(O)cc2)NC(=O)[C@H](CCCCNC(=O)C23CCC(CNC(=O)CN4CCN5CCN6CCN(CC4)CC(=O)[O][Lu]([O]C(=O)C5)[O]C(=O)C6)(CC2)CC3)N(C)C(=O)[C@H](Cc2ccccc2)NC1=O [RB-0006558] (cyclo(F[NMeK](X10)Y[dTrp(βS-Me)][Ala(piperidin-4-yl)]T))
Ki (SSTR2; read-out: SSTR2 Ki): < 1 nM

Molecule: C[C@@H](O)[C@@H]1NC(=O)[C@H](CC2CCNCC2)NC(=O)[C@@H]([C@@H](C)c2c[nH]c3ccccc23)NC(=O)[C@H](Cc2ccc(O)cc2)NC(=O)[C@H](CCCCN(C)C(=O)CN2CCN3CCN4CCN(CC2)CC(=O)[O][Lu]([O]C(=O)C4)[O]C(=O)C3)N(C)C(=O)[C@H](Cc2ccccc2)NC1=O [RB-0006579] (cyclo(F[NMeLys(Me)](DOTA(Lu))Y[dTrp(βS-Me)][Ala(piperidin-4-yl)]T))
Ki (SSTR2; read-out: SSTR2 Ki): 3.33 to 10 nM

Molecule: C[C@@H](O)[C@@H]1NC(=O)[C@H](CC2CCNCC2)NC(=O)[C@@H]([C@@H](C)c2c[nH]c3ccccc23)NC(=O)[C@H](Cc2ccc(O)cc2)NC(=O)[C@H](CCCCn2cc(CNC(=O)CN3CCN4CCN5CCN(CC3)CC(=O)[O][Lu]([O]C(=O)C4)[O]C(=O)C5)nn2)N(C)C(=O)[C@H](Cc2ccccc2)NC1=O [RB-0006591]
Ki (SSTR2; read-out: SSTR2 Ki): 3.33 to 10 nM

Ki [2]: < 1 nM
B1: RB-0006176 (peptide)
peptide: cyclo([NMeK]Y[dTrp(βS-Me)][Ala(piperazin-1-yl)]TF)
modifications: not fully specified (residue 1); printed as cyclo[NMe-Lys(DOTA-Lu),Tyr,(S-βMe)D-Trp,PipzaA,Thr,Phe]; also: Lu chelated in DOTA

Ki [2]: < 1 nM
Molecule: XYWKTF (cyclo[NMe-Hcy(COCH2-Dah-DOTA-Lu);Tyr;D-Trp;NMe-Lys;Thr;Phe]) [RB-0003453]

Ki [2]: < 1 nM
Molecule: XYWKVF (cyclo[NMe-Hcy(COCH2-Dah-DOTA-Lu);Tyr;D-Trp;Lys;Val;Phe]) [RB-0002676]

— patent US20250222146A1, “Radiopharmaceuticals Targeting Somatostatin Receptor 2 and Uses Thereof” (RayzeBio, Inc., priority 2023, published 2025)
